One test addresses DPF3b PHD12 D263A (human, UniProt Q92784-1 261-372, D263A). The test is described as follows: ITC. A general note: Isothermal titration calorimetry measures the heat released or taken up as one component is titrated into another.
The next test deals with DPF3b PHD12 F264A (human, UniProt Q92784-1 261-372, F264A). The test is described as follows: ITC.
In test [1] the target is human DPF3b tandem PHD finger (residues 261–372) (human, UniProt Q92784-1 261-372). The test is described as follows: NMR solution structure.
Test [2] concerns the target DPF3b PHD12 with Ala mutation of Glu315 (human, UniProt Q92784-1 261-372, Ala mutation of Glu315). The test is described as follows: ITC.
The target of test [3] is T1, DPF3b PHD12 with Ala mutation of Asp335 (human, UniProt Q92784-1 261-372, Ala mutation of Asp335).
T1 sequence (looked up): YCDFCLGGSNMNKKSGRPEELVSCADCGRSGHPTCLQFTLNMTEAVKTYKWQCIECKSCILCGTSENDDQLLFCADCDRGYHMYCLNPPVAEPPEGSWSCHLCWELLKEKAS
As to the kind of experiment: ITC.

The text below walks through data of paper PMC2901902 (Nature, 2010).

Where no end group is shown, it is not given here.

Turning to ARTKQTARKSTGGKAPRK (peptide, UniProt P68431 2-19, looked up) [unmodified histone H3 peptide (residues 1–18)], the binding result with DPF3b PHD12 D263A and in the test with DPF3b PHD12 F264A was “binds” each time.

On to GLGKGGAK(Ac)RHRKVLR (peptide, UniProt P62805 10-24, looked up) [histone H4K16ac peptide (residues 9–23)], for which the binding result in test [1] is listed as “binds”.

Turning to ARTKQTARKSTGGK(Ac)APRK (peptide, UniProt P68431 2-19, looked up) [histone H3 peptide acetylated at lysine 14 (residues 1–18)], the binding result in test [2] and in test [3] was “binds” each time.
